Test results reported in article PMC11964227, “Critical functions and key interactions mediated by the RNase E scaffolding domain in Pseudomonas aeruginosa” (PLOS Genetics, 2025).

T1: His10Smt3-tagged PNPase (P. aeruginosa, UniProt Q9HV59 1-701)
T1 construct: Polyribonucleotide phosphorylase (PNPase), P. aeruginosa, pnp; also called His10-Smt3-PNPase; source: soluble bacterial lysates, purified (nickel-agarose)
T1 sequence (looked up): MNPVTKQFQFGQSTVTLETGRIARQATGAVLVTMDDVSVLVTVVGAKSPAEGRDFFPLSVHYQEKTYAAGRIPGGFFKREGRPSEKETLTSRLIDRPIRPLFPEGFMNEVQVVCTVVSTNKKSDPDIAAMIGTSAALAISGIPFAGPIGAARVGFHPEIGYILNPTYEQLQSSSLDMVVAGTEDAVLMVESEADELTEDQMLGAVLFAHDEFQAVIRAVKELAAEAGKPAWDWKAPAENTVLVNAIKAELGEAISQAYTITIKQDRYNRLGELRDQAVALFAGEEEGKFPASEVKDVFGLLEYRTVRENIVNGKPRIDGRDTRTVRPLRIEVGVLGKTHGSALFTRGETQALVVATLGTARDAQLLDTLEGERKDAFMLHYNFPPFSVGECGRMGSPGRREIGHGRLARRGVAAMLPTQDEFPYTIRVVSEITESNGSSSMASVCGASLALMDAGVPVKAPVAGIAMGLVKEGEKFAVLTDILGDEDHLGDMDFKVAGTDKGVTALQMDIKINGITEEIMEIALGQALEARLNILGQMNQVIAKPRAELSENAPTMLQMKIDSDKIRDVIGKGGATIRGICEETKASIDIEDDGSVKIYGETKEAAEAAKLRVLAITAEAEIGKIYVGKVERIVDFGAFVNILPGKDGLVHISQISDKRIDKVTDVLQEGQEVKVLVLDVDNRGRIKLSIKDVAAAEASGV


How the values were obtained:
[1] = molecular target: T1, His10Smt3-tagged PNPase; assay: pull-down; purified Flag-tagged RNase E proteins (20-25 µg) immobilised on anti-Flag M2 magnetic beads, 5 µg of PNPase or RhlB in 100 µL buffer H (50 mM Tris-HCl pH 8.0, 150 mM NaCl, 0.01% Triton X-100), 1 hour at 4 °C; SDS-PAGE, Coomassie Blue; conditions: both partners purified
[2] = molecular target: T2, T18-RNase E^1-1057 (P. aeruginosa, UniProt Q9HZM8 1-1057); assay: two-hybrid; adenylate-cyclase-based bacterial two-hybrid in E. coli BTH101 (T18 and T25 fusions); MacConkey agar with maltose and IPTG, 30°C then room temperature; β-galactosidase activity with ONPG; conditions: partners not purified
T2 construct: source: bacterial two-hybrid fusion (pUT18C), E. coli BTH101

Row | Binder | binding result [1] | fold increase of β-galactosidase activity compared to empty vector controls [2]
1 | Flag-RNase E^572-1057 (domain or fragment, P. aeruginosa, UniProt Q9HZM8 572-1057, looked up, The results call the C-terminal tag 3xFlag, the methods Twin-Strep-Flag; also called RNase E CTD with no MTS; source: soluble bacterial lysates, purified (nickel-agarose, 250 mM imidazole fraction); not shown: His10-Smt3, N-terminal, kept; Twin-Strep-Flag, C-terminal, kept) AAKPAETSKPAAERQTRQDERRNGRQQNRRRDGRDGNRRDEERKPREERAERQPREERAERPNREERSERRREERAERPAREERQPREGREERAERTPREERQPREGREGREERSERRREERAERPAREERQPREGREERAERPAREERQPREDRQARDAAALEAEALPNDESLEQDEQDDTDGERPRRRSRGQRRRSNRRERQREVSGELEGSEATDNAAAPLNTVAAAAAAGIAVASEAVEANVEQAPATTSEAASETTASDETDASTSEAVETQGADSEANTGETADIEAPVTVSVVRDEADQSTLLVAQATEEAPFASESVESREDAESAVQPATEAAEEVAAPVPVEVAAPSEPAATEEPTPAIAAVPANATGRALNDPREKRRLQREAERLAREAAAAAEAAAQAAPAVEEIPAVASEEASAQEEPAAPQAEEITQADVPSQADEAQEAVQAEPEASGEGAADTEHAKKTEESETSRPHA | binds | 
2 | T25-PNPase (enzyme, P. aeruginosa, UniProt Q9HV59 1-701, looked up, Polyribonucleotide phosphorylase (PNPase), P. aeruginosa, pnp; source: bacterial two-hybrid fusion (pKT25), E. coli BTH101) MNPVTKQFQFGQSTVTLETGRIARQATGAVLVTMDDVSVLVTVVGAKSPAEGRDFFPLSVHYQEKTYAAGRIPGGFFKREGRPSEKETLTSRLIDRPIRPLFPEGFMNEVQVVCTVVSTNKKSDPDIAAMIGTSAALAISGIPFAGPIGAARVGFHPEIGYILNPTYEQLQSSSLDMVVAGTEDAVLMVESEADELTEDQMLGAVLFAHDEFQAVIRAVKELAAEAGKPAWDWKAPAENTVLVNAIKAELGEAISQAYTITIKQDRYNRLGELRDQAVALFAGEEEGKFPASEVKDVFGLLEYRTVRENIVNGKPRIDGRDTRTVRPLRIEVGVLGKTHGSALFTRGETQALVVATLGTARDAQLLDTLEGERKDAFMLHYNFPPFSVGECGRMGSPGRREIGHGRLARRGVAAMLPTQDEFPYTIRVVSEITESNGSSSMASVCGASLALMDAGVPVKAPVAGIAMGLVKEGEKFAVLTDILGDEDHLGDMDFKVAGTDKGVTALQMDIKINGITEEIMEIALGQALEARLNILGQMNQVIAKPRAELSENAPTMLQMKIDSDKIRDVIGKGGATIRGICEETKASIDIEDDGSVKIYGETKEAAEAAKLRVLAITAEAEIGKIYVGKVERIVDFGAFVNILPGKDGLVHISQISDKRIDKVTDVLQEGQEVKVLVLDVDNRGRIKLSIKDVAAAEASGV |  | 11 fold
3 | T25-RhlB (enzyme, P. aeruginosa, UniProt Q9HXE5 1-397, looked up, RNA helicase RhlB, P. aeruginosa; source: bacterial two-hybrid fusion (pKT25), E. coli BTH101) MVEPQEGKTRFHDFNLAPSLMHAIHDLGFPYCTPIQAQVLGFTLRGQDAIGRAQTGTGKTAAFLISIITQLLQTPPPKERYMGEPRALIIAPTRELVVQIAKDAAALTKYTGLNVMTFVGGMDFDKQLKQLEARFCDILVATPGRLLDFNQRGEVHLDMVEVMVLDEADRMLDMGFIPQVRQIIRQTPHKGERQTLLFSATFTDDVMNLAKQWTVDPAIVEIEPENVASDTVEQHVYAVAGSDKYKLLYNLVAQNNWERVMVFANRKDEVRRIEERLTKDGISAAQMSGDVPQHKRIRTLEGFREGKIRVLVATDVAGRGIHIDGISHVINFTLPEDPDDYVHRIGRTGRAGASGTSISFAGEDDAFALPPIEELLGRKITCEMPPAELLKPVPRKH |  | 5 fold
